For the series, the target named is GST-poly (Glu, Tyr) fusion protein.
Sequence of GST-poly (Glu, Tyr) fusion protein (chain, as listed by the source): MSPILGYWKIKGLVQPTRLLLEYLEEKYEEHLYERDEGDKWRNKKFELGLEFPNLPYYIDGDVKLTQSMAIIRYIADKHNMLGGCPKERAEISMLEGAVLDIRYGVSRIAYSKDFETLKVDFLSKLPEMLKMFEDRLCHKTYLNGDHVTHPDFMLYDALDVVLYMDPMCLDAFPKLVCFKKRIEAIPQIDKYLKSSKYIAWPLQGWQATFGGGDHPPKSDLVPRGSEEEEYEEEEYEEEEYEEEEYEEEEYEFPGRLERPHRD

B1: ErbB4 Kinase, intracellular domain (ICD) (protein)
chain: RRKSIKKKRALRRFLETELVEPLTPSGTAPNQAQLRILKETELKRVKVLGSGAFGTVYKGIWVPEGETVKIPVAIKILNETTGPKANVEFMDEALIMASMDHPHLVRLLGVCLSPTIQLVTQLMPHGCLLEYVHEHKDNIGSQLLLNWCVQIAKGMMYLEERRLVHRDLAARNVLVKSPNHVKITDFGLARLLEGDEKEYNADGGKMPIKWMALECIHYRKFTHQSDVWSYGVTIWELMTFGGKPYDGIPTREIPDLLEKGERLPQPPICTIDVYMVMVKCWMIDADSRPKFKELAAEFSRMARDPQRYLVIQGDDRMKLPSPNDSKFFQNLLDEEDLEDMMDAEEYLVPQAFNIPPPIYTSRARIDSNRSEIGHSPPPAYTPMSGNQFVYRDGGFAAEQGVSVPYRAPTSTIPEAPVAQGATAEIFDDSCCNGTLRKPVAPHVQEDSSTQRYSADPTVFAPERSPRGELDEEGYMTPMRDKPKQEYLNPVEENPFVSRRKNGDLQALDNPEYHNASNGPPKAEDEYVNEPLYLNTFANTLGKAEYLKNNILSMPEKAKKAFDNPDYWNHSLPPRSTLQHPDYLQEYSTKYFYKQNGRIRPIVAENPEYLSEFSLKPGTVLPPPPYRHRNTVV
With B1, the “phosphorylation of the substrate with ATP, Western blotting with Anti-Phosphotyrosine clone 4G10” value (shortened to “phosphorylation of the substrate”) is “In +of all of (i to vii) in FIG. 1, a single band was observed at a position where the phosphorylated GST-poly (Glu, Tyr) fusion protein appears”.

B2: PDGF Receptor β Kinase, intracellular domain (ICD) (protein)
chain: RYEIRWKVIESVSSDGHEYIYVDPMQLPYDSTWELPRDQLVLGRTLGSGAFGQVVEATAHGLSHSQATMKVAVKMLKSTARSSEKQALMSELKIMSHLGPHLNVVNLLGACTKGGPIYIITEYCRYGDLVDYLHRNKHTFLQHHSDKRRPPSAELYSNALPVGLPLPSHVSLTGESDGGYMDMSKDESVDYVPMLDMKGDVKYADIESSNYMAPYDNYVPSAPERTCRATLINESPVLSYMDLVGFSYQVANGMEFLASKNCVHRDLAARNVLICEGKLVKICDFGLARDIMRDSNYISKGSTFLPLKWMAPESIFNSLYTTLSDVWSFGILLWEIFTLGGTPYPELPMNEQFYNAIKRGYRMAQPAHASDEIYEIMQKCWEEKFEIRPPFSQLVLLLERLLGEGYKKKYQQVDEEFLRSDHPAILRSQARLPGFHGLRSPLDTSSVLYTAVQPNEGDNDYIIPLPDPKPEVADEGPLEGSPSLASSTLNEVNTSSTISCDSPLEPQDEPEPEPQLELQVEPEPELEQLPDSGCPAPRAEAEDSFL
Consider B2, for which the “phosphorylation of the substrate” value is reported as “In +of all of (i to vii) in FIG. 1, a single band was observed at a position where the phosphorylated GST-poly (Glu, Tyr) fusion protein appears”.

B3: VEGF Receptor 1 Kinase, intracellular domain (ICD) (protein)
chain: RKMKRSSSEIKTDYLSIIMDPDEVPLDEQCERLPYDASKWEFARERLKLGKSLGRGAFGKVVQASAFGIKKSPTCRTVAVKMLKEGATASEYKALMTELKILTHIGHHLNVVNLLGACTKQGGPLMVIVEYCKYGNLSNYLKSKRDLFFLNKDAALHMEPKKEKMEPGLEQGKKPRLDSVTSSESFASSGFQEDKSLSDVEEEEDSDGFYKEPITMEDLISYSFQVARGMEFLSSRKCIHRDLAARNILLSENNVVKICDFGLARDIYKNPDYVRKGDTRLPLKWMAPESIFDKIYSTKSDVWSYGVLLWEIFSLGGSPYPGVQMDEDFCSRLREGMRMRAPEYSTPEIYQIMLDCWHRDPKERPRFAELVEKLGDLLQANVQQDGKDYIPINAILTGNSGFTYSTPAFSEDFFKESISAPKFNSGSSDDVRYVNAFKFMSLERIKTFEELLPNATSMFDDYQGDSSTLLASPMLKRFTWTDSKPKASLKIDLRVTSKSKESGLSDVSRPSFCHSSCGHVSEGKRRFTYDHAELERKIACCSPPPDYNSVVLYSTPPI
For the protein B3, the “phosphorylation of the substrate” value was “In +of all of (i to vii) in FIG. 1, a single band was observed at a position where the phosphorylated GST-poly (Glu, Tyr) fusion protein appears”.

B4: IGF-1 Receptor Kinase, intracellular domain (ICD) (protein)
chain: RKRNNSRLGNGVLYASVNPEYFSAADVYVPDEWEVAREKITMSRELGQGSFGMVYEGVAKGVVKDEPETRVAIKTVNEAASMRERIEFLNEASVMKEFNCHHVVRLLGVVSQGQPTLVIMELMTRGDLKSYLRSLRPEMENNPVLAPPSLSKMIQMAGEIADGMAYLNANKFVHRDLAARNCMVAEDFTVKIGDFGMTRDIYETDYYRKGGKGLLPVRWMSPESLKDGVFTTYSDVWSFGVVLWEIATLAEQPYQGLSNEQVLRFVMEGGLLDKPDNCPDMLFELMRMCWQYNPKMRPSFLEIISSIKEEMEPGFREVSFYYSEENKLPEPEELDLEPENMESVPLDPSASSSSLPLPDRHSGHKAENGPGPGVLVLRASFDERQPYAHMNGGRKNERALPLPQSSTC
On to B4, for which the “phosphorylation of the plate-bound substrate, ELISA with HRP-labeled p-Tyr (PY20) antibody, absorbance (650 nm)” value was “In either case of HER1 and IGF1R, as the tyrosine kinase amount increased, a measured value was increased”; the “phosphorylation of the substrate” value is given as “In +of all of (i to vii) in FIG. 1, a single band was observed at a position where the phosphorylated GST-poly (Glu, Tyr) fusion protein appears”.

For the origin of these results see patent US20080003630.
